Laboratory results taken from patent US20110189093A1 (PROSCAN RX PHARMA, published 2011).

B1: antibody PSf34.1 (antibody, V domains shown)
VH: EVQLEESGAELVKPGASVKLSCTASGFYIKDTYIHWVKQRPEEVLEWIGGIDPADGDTRYDPKFQGKATITADTSSNSAYLHLTSLTSEDTAVYFCARELAYWGAGTTVTVS
VL: not shown
notes: also called mAb PSf34.1
B2: antibody PSf42.4 (antibody, V domains shown)
VH: EVKLQQSGAELVKPGASVKLSCTASGFSIRDTYMHWVRQRPEQGLEWITGIDPENGNSKYAPRFQDKATIIADTSSNTVHLQLDTLTSEDTAVYYCTRELAYWGQGTTVTVS
VL: DILMTQSPLTLSVIIGQPASFSCKSSHSLLHRDGRTYLNWLLQRPGQSPQRLIYLVSKLDSGVPDRFTGSGSGTDFTLKISRVEAEDLGVYYCWQGTHFPRTFGGGTKLEIKR
B3: antibody PSf42.1 (antibody, V domains shown)
VH: EVQLEESGAEFVRPGAAVKLSCTVSGLNIKDSYLHWVKQRPEQGLEWIGGIDPANGDVEYDPKFQGKAAITADTSSNTAYLRLSSLTSEDTAVYYCAPFPYWGAGTTVTVS
VL: B2 VL
B4: antibody PSf47.1 (antibody, V domains shown)
VH: EVKLQESGPDLVKPGASVKVSCKASGYTFTVYVIHWVIQKPGQGLEWIGYINPYNDGAEYNENFKGKATLTSDKSSSTAYMELSSLTSEDSAVYYCTRGENYYTSRYGFFDVWGQGTTVTVS
VL: DILMPQSPSSLAVSAGEKVTMSCKSSQSLLNSRTRKNYLAWYQQKLGQSPKLLIYWASTRESGVPDRFTGSGSGTDFTLTISSVQAEDLAVYYCKQSYNFITFGAGTKLELKR
notes: also called mAb PSf47.1
B5: antibody PSf42.3 (antibody, V domains shown)
VH: EVQLQQSGAELAKPGASVKLSCTGSGFNIKDTYMHWVKQRPEQGLEWIGGIDPETGNTKFDPRFQDKATITSDTSSNTVLLQLSSLTSEDTAVYYCANLGRPFAHWGQGTTVTVS
VL: HSADPVSISCKSSQSLLHRDGKTYLNWVFQRPGQSPQRLIYLVSLVDSGVPDRFTGSGSGTDFTLKINRVEAEDLGVYYCWQGTHFPRTFGGGTKLEIKR

These binders were tested against T1, prostate specific membrane antigen (PSMA) on LNCaP cells (human, UniProt Q04609 1-750) (assay: saturation binding on whole LNCaP cells, detected with 125I goat anti-mouse IgG).
T1 construct: also called PSMA-expressing cells
T1 sequence (Q04609 whole entry): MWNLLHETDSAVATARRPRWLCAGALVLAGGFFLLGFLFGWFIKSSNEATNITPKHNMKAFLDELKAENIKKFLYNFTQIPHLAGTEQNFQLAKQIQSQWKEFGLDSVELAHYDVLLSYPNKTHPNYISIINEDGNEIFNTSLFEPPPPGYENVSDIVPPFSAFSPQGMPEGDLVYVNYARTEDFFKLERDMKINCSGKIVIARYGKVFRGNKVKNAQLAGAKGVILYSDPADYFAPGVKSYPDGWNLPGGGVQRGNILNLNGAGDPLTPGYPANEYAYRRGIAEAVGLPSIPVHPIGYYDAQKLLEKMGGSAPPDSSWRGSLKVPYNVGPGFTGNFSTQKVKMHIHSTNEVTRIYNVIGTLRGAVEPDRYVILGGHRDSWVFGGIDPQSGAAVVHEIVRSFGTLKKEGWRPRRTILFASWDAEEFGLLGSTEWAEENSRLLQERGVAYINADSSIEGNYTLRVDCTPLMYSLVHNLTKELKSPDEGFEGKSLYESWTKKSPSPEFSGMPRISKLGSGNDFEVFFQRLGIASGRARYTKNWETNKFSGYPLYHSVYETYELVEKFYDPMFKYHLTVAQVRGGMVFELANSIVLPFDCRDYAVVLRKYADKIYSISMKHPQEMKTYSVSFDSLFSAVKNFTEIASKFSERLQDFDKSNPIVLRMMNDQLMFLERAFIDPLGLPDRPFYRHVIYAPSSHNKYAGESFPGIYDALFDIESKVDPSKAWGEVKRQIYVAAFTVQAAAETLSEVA
Procedure: Antibody binding assay: Saturation binding studies were performed on whole cells with purified anti-PSMA MAb followed by detection of cellbound MAb using ¹²⁵I-labeled goat anti-mouse IgG. Briefly, nearly confluent LNCaP cells were rinsed with ice-cold PBS and scraped in PBS containing the protease inhibitor cocktail described above. Cells (7.5×10⁶ per tube) were incubated with 100 μL of antibody diluted in complete RPMI to various concentrations for 1 h at room temperature. […] Following removal of unbound secondary antibody by centrifugation, the radioactivity associated with the cell pellet was determined using a gamma counter. Non-specific binding was determined in the presence of a 100-fold molar excess of the antibody antigen PSMA₄₉₀₋₅₀₀. […] For these experiments, a parallel sample in which the primary MAb was replaced by diluent served as a control for background binding of the secondary antibody and was less than 0.5%. Counts were analyzed by non-linear regression of total binding (Y) according to the law of mass action using the formula Y=Bmax*X/(Kd+X), where Bmax, Kd, and X represent the maximal binding, the concentration of ligand at half maximal binding, and the concentration of primary antibody, respectively. The ¹²⁵I-labeled goat anti-mouse IgG used in these experiments was radio-iodinated using the chloramine T method. Briefly, 10 μg of goat anti-mouse IgG whole molecule was incubated with 300 pmol of chloramine T and 90 μCi of [¹²⁵I] sodium iodide in a final volume of 25 μL containing 0.5 M sodium phosphate (pH 7.5) for 20 min at room temperature before quenching the reaction with 100 μL of sodium metabisulfite at 2.6 mg/mL in 0.5 M sodium phosphate buffer (pH 7.5). The labeled antibody was purified from free iodide by gel filtration on Sephadex G25. The amount of free iodide contaminating the labeled antibody was evaluated by ITLC-SG and never exceeded 1%.

Binder | Bmax [pmol/mg] | Kd [nM]
B1 | 4.8 | 
B2 | 5.1 | 34.1
B3 | 2.8 | 14.7
B4 | 4.6 | 
B5 | 4.9 | 20.4
